Results on two molecules are retold here after PMC6520340, “Development of a ribonuclease containing a G4-specific binding motif for programmable RNA cleavage”.

The data set concerns the target RHAU140-RNase HI fusion (Homo sapiens (RHAU) / Bacillus …, UniProt Q9H2U1 53-192+=SGGGSGGGSGGGSGGG+Q9KEI9:59-196, internal_change). Description: EMSA; 10 uM DNA, 50 uM protein; 100 mM K+; Native 10% PAGE in 1X TBE, 20 mM potassium phosphate, 100 mM KCl, pH 7.0; UV shadowing; temperature not stated. To be noted: protein: recombinant.

RHAU140-RNase HI fusion, sequence (Q9H2U1 other isoform, or with tags, fused parts or gaps): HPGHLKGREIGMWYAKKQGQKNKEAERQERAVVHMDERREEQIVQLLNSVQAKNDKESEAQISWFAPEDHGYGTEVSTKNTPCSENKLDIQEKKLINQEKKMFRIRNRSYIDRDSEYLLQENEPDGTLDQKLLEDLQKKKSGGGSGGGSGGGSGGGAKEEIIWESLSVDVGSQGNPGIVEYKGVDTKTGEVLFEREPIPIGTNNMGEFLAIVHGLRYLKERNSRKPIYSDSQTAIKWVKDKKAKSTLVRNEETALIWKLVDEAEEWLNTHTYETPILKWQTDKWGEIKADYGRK

B1: B1 (structured_DNA)
DNA: TTGGGTGGGTGGGTGGGTTCAACGACGACGGCATCATC
Take B1: the binding result (parallel G4 with 3' single-stranded tail) is on record as “binds”.

B2: B0 (ssDNA)
DNA: TTGACTAAGTGCCTTAGTTCAACGACGACGGCATCATC
For the molecule B2, the binding result (single strand) is “no binding”.
